For 2 molecules, Binding Score results are on record in patent publication US7183376.

This assay addresses soluble CD28-Ig Fc fusion protein (extracellular domain of human CD28 and Fc portion of human IgG1; R&D Systems) (human), P10747. As to the kind of experiment: competitive FACS on transfected 293 cells; competitor sCTLA-4-Ig; score 0/1/2 = CD28/CTLA-4 binding ratio like / greater / significantly greater than WT hB7-1.

B1: Round 2 CD28A4-9 (ligand)
chain: ITPKSVTKRVKETVMLSCDYNTSTEKLTSLRIYWQKDSKMVLAILPGKVQVWPEYKNRTITDMNDNPRIVILALRLSDSGTYTCVIQKPVLKGAYKLEHLTSVRLMIRADFPVPTINDLGNPSPNIRRLICSTSGGFPRPHLYWLENGEELNATNTTVSQDPETKLYMISSELDFNVTNNHSIVCLIKYGELSVSQIFPWSKPKQEPPIDQLPFWVIIPVSGALVLTAVVLYCPACRHVARWKRTRRNEETVGTERLSPIYLGSAQSRAEVPSLSX
modifications: not fully specified; X: residue not identified in the source; ends and bridges not checked
Turning to B1, the Binding Score was 1.

B2: Round 2 CD28A12-5 (ligand)
chain: ITPKSVTKRVKETVMLSCDYNTSTEELTSLRIYWRKDSKMXLAILPGKVQVWPEYKNRTITDMNDNLRIVILALRLSDSGTYTCVIQKPDLKGAYKLEHLTSVRLMIRADFPVPTINDLGNPSPNIRRLICSTSGGFPRPHLYWLENGEELNATNTTVSQDPGTELYMISSELDFNVTNNHSIVCLIKYGELLVSQIFPWSKPKQEPPIDQLPFWVIIPVSGALVLTAVVLYCLACRHVARWKRTRRNEETVGTERLSPIYLGSAQSSG
modifications: not fully specified; X: residue not identified in the source; ends and bridges not checked; also: glycosylated membrane protein, sites not given here
With B2, the Binding Score was 1.
